test system: Escherichia coli TOP10; test: shrunken log2 fold change of peptide-encoding DNA abundance (4.5 h post-induction vs induction); higher = less antimicrobial activity (less host growth inhibition); details: time post-induction: 4.5 h; library: site-saturation at positions 5, 18, 19, 20
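Further: peptides expressed intracellularly from a pBAD plasmid library in pooled LB shake-flask culture, induced with 0.3% L-arabinose, DNA abundance read by NGS, three biological replicates, DESeq2 with apeglm shrinkage.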

| Sequence | shrunken log2 fold change |
| --- | --- |
| RRIRARPPRLPRPRPRPMHFPRP | 0.122 |
| RRIRVRPPRLPRPRPRPDCDPRP | -0.102 |
| RRIRRRPPRLPRPRPRPWQFPRP | -0.0199 |
| RRIRIRPPRLPRPRPRPLVCPRP | -0.346 |
| RRIRWRPPRLPRPRPRPTWTPRP | 0.303 |
| RRIRDRPPRLPRPRPRPNDAPRP | 0.0621 |
| RRIRGRPPRLPRPRPRPKWNPRP | 0.581 |
| RRIRERPPRLPRPRPRPKWNPRP | -0.447 |
| RRIRTRPPRLPRPRPRPWMQPRP | -0.0757 |
| RRIRGRPPRLPRPRPRPNEKPRP | 0.0813 |
| RRIRSRPPRLPRPRPRPDSDPRP | 0.051 |
| RRIRWRPPRLPRPRPRPANEPRP | 0.134 |
| RRIRSRPPRLPRPRPRPQTDPRP | -0.0826 |
| RRIRARPPRLPRPRPRPDHPPRP | 0.297 |
| RRIRKRPPRLPRPRPRPTFDPRP | 0.227 |
| RRIRGRPPRLPRPRPRPWGGPRP | 0.808 |
| RRIRWRPPRLPRPRPRPCTFPRP | -0.72 |
| RRIRARPPRLPRPRPRPWKKPRP | -0.0663 |
| RRIRMRPPRLPRPRPRPLPVPRP | 0.872 |
| RRIRDRPPRLPRPRPRPYFIPRP | -0.324 |
| RRIRNRPPRLPRPRPRPHKSPRP | -0.298 |
| RRIRYRPPRLPRPRPRPSREPRP | -0.0635 |
| RRIRTRPPRLPRPRPRPVYLPRP | -1.16 |
| RRIRSRPPRLPRPRPRPYVMPRP | -0.653 |
| RRIRLRPPRLPRPRPRPFENPRP | -0.388 |

| Sequence | shrunken log2 fold change |
| --- | --- |
| RRIRGRPPRLPRPRPRPVREPRP | 1.11 |
| RRIRWRPPRLPRPRPRPALCPRP | 0.331 |
| RRIRLRPPRLPRPRPRPFPPPRP | 0.00271 |
| RRIRYRPPRLPRPRPRPIYRPRP | -0.641 |
| RRIRARPPRLPRPRPRPLDQPRP | 1.44 |
| RRIRVRPPRLPRPRPRPTWWPRP | 0.0544 |
| RRIRCRPPRLPRPRPRPRRYPRP | -0.0183 |
| RRIRYRPPRLPRPRPRPMVRPRP | -0.0135 |
| RRIRCRPPRLPRPRPRPWYPPRP | -0.742 |
| RRIRMRPPRLPRPRPRPLKVPRP | 0.153 |
| RRIRKRPPRLPRPRPRPVWLPRP | 0.192 |
| RRIRFRPPRLPRPRPRPSYEPRP | 1.66 |
| RRIRNRPPRLPRPRPRPTSAPRP | 0.163 |
| RRIRQRPPRLPRPRPRPKHQPRP | -0.386 |
| RRIRKRPPRLPRPRPRPKARPRP | 0.0808 |
| RRIRPRPPRLPRPRPRPFGEPRP | 0.0159 |
| RRIRDRPPRLPRPRPRPFHYPRP | -0.00232 |
| RRIRTRPPRLPRPRPRPLFVPRP | -0.382 |
| RRIRHRPPRLPRPRPRPDPDPRP | -0.0982 |
| RRIRCRPPRLPRPRPRPYDIPRP | 0.0852 |
| RRIRARPPRLPRPRPRPLFPPRP | 0.148 |
| RRIRMRPPRLPRPRPRPRHLPRP | -0.0764 |
| RRIRSRPPRLPRPRPRPNSRPRP | -0.105 |
| RRIRWRPPRLPRPRPRPNHGPRP | -0.16 |
| RRIRFRPPRLPRPRPRPQRWPRP | 0.427 |

| Sequence | shrunken log2 fold change |
| --- | --- |
| RRIRERPPRLPRPRPRPYHHPRP | -1.56 |
| RRIRARPPRLPRPRPRPFQVPRP | 0.0694 |
| RRIRPRPPRLPRPRPRPVMNPRP | -0.29 |
| RRIRARPPRLPRPRPRPKKLPRP | 0.223 |
| RRIRGRPPRLPRPRPRPSYIPRP | -0.458 |
| RRIRSRPPRLPRPRPRPIMFPRP | -0.304 |
| RRIRFRPPRLPRPRPRPTVPPRP | 0.341 |
| RRIRERPPRLPRPRPRPETMPRP | 0.0664 |
| RRIRGRPPRLPRPRPRPEHTPRP | 0.0464 |
| RRIRTRPPRLPRPRPRPDNHPRP | -1.07 |
| RRIRIRPPRLPRPRPRPSPHPRP | -1.03 |
| RRIRPRPPRLPRPRPRPVYRPRP | -0.166 |
| RRIRKRPPRLPRPRPRPGSMPRP | 0.285 |
| RRIRHRPPRLPRPRPRPHPFPRP | -0.3 |
| RRIRARPPRLPRPRPRPCNTPRP | -0.0534 |
| RRIRQRPPRLPRPRPRPVITPRP | -0.414 |
| RRIRVRPPRLPRPRPRPISPPRP | 0.129 |
| RRIRRRPPRLPRPRPRPFSRPRP | 0.18 |
| RRIRTRPPRLPRPRPRPFFCPRP | -0.0401 |
| RRIRWRPPRLPRPRPRPPDEPRP | 0.654 |
| RRIRVRPPRLPRPRPRPHFMPRP | 1.55 |
| RRIRPRPPRLPRPRPRPHDFPRP | -0.145 |
| RRIRTRPPRLPRPRPRPCFHPRP | -0.638 |
| RRIRMRPPRLPRPRPRPTSDPRP | 0.055 |
| RRIRTRPPRLPRPRPRPIDCPRP | 0.0429 |

| Sequence | shrunken log2 fold change |
| --- | --- |
| RRIRKRPPRLPRPRPRPWIIPRP | -0.277 |
| RRIRCRPPRLPRPRPRPYPEPRP | -0.0664 |
| RRIRYRPPRLPRPRPRPMIQPRP | -0.0921 |
| RRIRERPPRLPRPRPRPEGVPRP | 0.172 |
| RRIRVRPPRLPRPRPRPGCDPRP | 0.952 |
| RRIRSRPPRLPRPRPRPTWPPRP | 0.41 |
| RRIRVRPPRLPRPRPRPWMLPRP | -0.2 |
| RRIRNRPPRLPRPRPRPHHKPRP | -0.461 |
| RRIRLRPPRLPRPRPRPWMNPRP | -0.0474 |
| RRIRMRPPRLPRPRPRPQWHPRP | 0.265 |
| RRIRFRPPRLPRPRPRPLCRPRP | -0.406 |
| RRIRERPPRLPRPRPRPSTRPRP | -0.232 |
| RRIRCRPPRLPRPRPRPESRPRP | 0.276 |
| RRIRCRPPRLPRPRPRPHETPRP | -0.035 |
| RRIRTRPPRLPRPRPRPRNLPRP | -0.218 |
| RRIRLRPPRLPRPRPRPNGVPRP | 0.0191 |
| RRIRFRPPRLPRPRPRPVFLPRP | -0.327 |
| RRIRTRPPRLPRPRPRPYKYPRP | -1.14 |
| RRIRIRPPRLPRPRPRPCWPPRP | -0.232 |
| RRIRLRPPRLPRPRPRPRKIPRP | 0.103 |
| RRIRYRPPRLPRPRPRPVEKPRP | -0.129 |
| RRIRVRPPRLPRPRPRPACMPRP | -0.0781 |
| RRIRRRPPRLPRPRPRPMYKPRP | -0.0524 |
| RRIRSRPPRLPRPRPRPDLEPRP | -0.0903 |
| RRIRDRPPRLPRPRPRPFFCPRP | 0.55 |

| Sequence | shrunken log2 fold change |
| --- | --- |
| RRIRIRPPRLPRPRPRPKGCPRP | -0.00865 |
| RRIRNRPPRLPRPRPRPWQEPRP | -0.0629 |
| RRIRVRPPRLPRPRPRPAEVPRP | 0.00588 |
| RRIRQRPPRLPRPRPRPKCGPRP | 0.354 |
| RRIRARPPRLPRPRPRPVGCPRP | 0.768 |
| RRIRMRPPRLPRPRPRPIHSPRP | -0.01 |
| RRIRCRPPRLPRPRPRPCTFPRP | -0.856 |
| RRIRARPPRLPRPRPRPTSPPRP | 0.292 |
| RRIRHRPPRLPRPRPRPQVNPRP | -0.273 |
| RRIRTRPPRLPRPRPRPFHQPRP | -0.126 |
| RRIRERPPRLPRPRPRPYEPPRP | 0.029 |
| RRIRKRPPRLPRPRPRPIDKPRP | 0.0797 |
| RRIRYRPPRLPRPRPRPAYRPRP | -0.0312 |
| RRIRNRPPRLPRPRPRPNDRPRP | -0.218 |
| RRIRCRPPRLPRPRPRPTIKPRP | -0.364 |
| RRIRKRPPRLPRPRPRPLCPPRP | -0.145 |
| RRIRTRPPRLPRPRPRPEPYPRP | 0.0261 |
| RRIRDRPPRLPRPRPRPSMWPRP | -0.0184 |
| RRIRYRPPRLPRPRPRPIQKPRP | -0.00992 |
| RRIRDRPPRLPRPRPRPELTPRP | 0.167 |
| RRIRFRPPRLPRPRPRPIQAPRP | 0.00328 |
| RRIRYRPPRLPRPRPRPEHRPRP | 0.0623 |
| RRIRARPPRLPRPRPRPHFTPRP | 0.345 |
| RRIRCRPPRLPRPRPRPEAVPRP | 0.383 |
| RRIRDRPPRLPRPRPRPDKHPRP | -0.0761 |

| Sequence | shrunken log2 fold change |
| --- | --- |
| RRIRIRPPRLPRPRPRPASPPRP | -0.0763 |
| RRIRKRPPRLPRPRPRPPMVPRP | 0.296 |
| RRIRTRPPRLPRPRPRPYKLPRP | -0.215 |
| RRIRMRPPRLPRPRPRPIMLPRP | -0.351 |
| RRIRMRPPRLPRPRPRPEIGPRP | 2.62 |
| RRIRERPPRLPRPRPRPWHLPRP | -0.349 |
| RRIRGRPPRLPRPRPRPNGMPRP | 0.106 |
| RRIRLRPPRLPRPRPRPPPHPRP | 1.13 |
| RRIRERPPRLPRPRPRPMQHPRP | -0.04 |
| RRIRIRPPRLPRPRPRPLHYPRP | -0.779 |
| RRIRERPPRLPRPRPRPGYNPRP | -0.0871 |
| RRIRSRPPRLPRPRPRPNLWPRP | -0.075 |
| RRIRKRPPRLPRPRPRPQYWPRP | 0.152 |
| RRIRDRPPRLPRPRPRPRWPPRP | 0.594 |
| RRIRSRPPRLPRPRPRPWFRPRP | 0.212 |
| RRIRWRPPRLPRPRPRPQVKPRP | 0.0306 |
| RRIRSRPPRLPRPRPRPMMMPRP | -0.83 |
| RRIRLRPPRLPRPRPRPHTEPRP | -0.167 |
| RRIRQRPPRLPRPRPRPSQCPRP | -0.0618 |
| RRIRHRPPRLPRPRPRPTKNPRP | -0.312 |
| RRIRLRPPRLPRPRPRPVFNPRP | -0.448 |
| RRIRNRPPRLPRPRPRPKIEPRP | -0.0398 |
| RRIRRRPPRLPRPRPRPKHWPRP | 0.334 |
| RRIRTRPPRLPRPRPRPTQSPRP | 0.311 |
| RRIRQRPPRLPRPRPRPDNNPRP | -1.14 |
